Experimental findings from patent publication US20090312245A1, “SRA binding protein” (The University of Western Australia, priority 2005, published 2009) are described below.

One experiment relates to estrogen receptor (ER). Briefly: ERE-Luc (E2-responsive) reporter transfection assay in HeLa cells. In kind it is cell-based, human. As to the method: HeLa cells were transfected using FuGENE6 (Roche) with equal molar ratios of control and plasmid DNA: 50 ng/well ER(α); 0.6 μg/well ERE-Luc, GRE-Luc, TRE-Luc, ARE-Luc, VDRE-Luc; 0.0625 μg/well pSCT or 0.08 μg/well pSCT-SRA/pSCT-SRA-SDM7a; 0.049 μg/well pCMV-FLAG-7.1 or […] FLAG-SLIRP/FLAG-SLIRP-R24/FLAG-SLIRP-L62/FLAG-SLIRP-DM; 0.3 μg/well pCMX or 0.5 μg/well pCMX-SHARP; 100 ng/well pCGN or 100 ng/well pCGN-SKIP. After transfection, cells were cultured in complete medium for 24 h, prior to the addition of E2 (10 nM), Dex (10 nM), T3 (1 nM), DHT (10 nM), VitD (100 nM), 4-hydroxytamoxifen (Tam, 1 nM), ICI182780 (ICI, 1 nM) or equal volume of vehicle (absolute ethanol or water). After 8 h, lysates were assayed for luciferase activity relative to protein levels using Luciferase (Promega) and Protein Assay (BioRad) on a FluorStar Optima (BMG).

The subject of the next experiment is SRA STR7. In words: REMSA with 32P-labeled SRA STR7 probe and recombinant proteins. The note with it: in the presence of heparin and RNase T1. In kind it is binding, human. The text has this:
The yeast three-hybrid SLIRP cDNA clone containing the coding region and 3′ UTR, was amplified with specific primers SLIRP (sense) 5′ cgc gga tcc gcg gcc tca gca gca 3′, SLIRP (reverse) 5′ gcg cgg atc cta ggc tgc agt ctca 3′, and subcloned into BamHI cut pCMV-FLAG 7.1 for transfection assays and pGEX-6P2 for GST-fusion protein experiments. STR7 primers (sense) 5′ agg agg cag gta tgt gat gac atc agc cga cgc ctg gca ctg ctg cag gaa cag tgg gct gga gga aag ttg tca ata cct gta aag aa 3′ and (reverse) 5′ ttc ttt aca ggt aft gac aac ttt cct cca gcc cac tgt tcc tgc agc agt gcc agg cgt cgg ctg atg tca tca cat acc tgc ttc ct 3′ were annealed and cloned into EcoRV-digested pBluescript II KS+ to generate labeled riboprobes. To generate the SRA mutant SDM7, the underlined residues above were mutated to tcc, ctc and ctc as outlined previously (19). pBluescript vectors were linearized with EcoRV for transcription with T7 or T3 RNA polymerase (Invitrogen) in reactions containing [^32P]UTP (Amersham Biosciences) or unlabeled UTP, as described (16), to produce riboprobes with a specific activity of ˜2×10^9 cpm/μg RNA. Constructs for expressing mutant forms of SLIRP (R24, 25A and L62A) were prepared by PCR-based mutagenesis. Each of the mutant coding domains was subcloned into BamH1-cut pCMV-FLAG 7.1 and pGEX-6P2 as above. […]

With “SHARP: SMRT/HDAC1 associated repressor protein, SRA corepressor, transfected expression vector [reference compound]”, the “repression of SRA-mediated coactivation of E2-responsive reporter” value with estrogen receptor (ER) (cotransfected with SRA) is “repressed SRA-mediated coactivation”.

B1: SKIP: coregulator, coactivator of ER transactivation, transfected expression vector (protein, UniProt Q13573 2-536, looked up)
SNW domain-containing protein …: ALTSFLPAPTQLSQDQLEAEEKARSQRSRQTSLVSSRREPPPYGYRKGWIPRLLEDFGDGGAFPEIHVAQYPLDMGRKKKMSNALAIQVDSEGKIKYDAIARQGQSKDKVIYSKYTDLVPKEVMNADDPDLQRPDEEAIKEITEKTRVALEKSVSQKVAAAMPVRAADKLAPAQYIRYTPSQQGVAFNSGAKQRVIRMVEMQKDPMEPPRFKINKKIPRGPPSPPAPVMHSPSRKMTVKEQQEWKIPPCISNWKNAKGYTIPLDKRLAADGRGLQTVHINENFAKLAEALYIADRKAREAVEMRAQVERKMAQKEKEKHEEKLREMAQKARERRAGIKTHVEKEDGEARERDEIRHDRRKERQHDRNLSRAAPDKRSKLQRNENRDISEVIALGVPNPRTSNEVQYDQRLFNQSKGMDSGFAGGEDEIYNVYDQAWRGGKDMAQSIYRPSKNLDKDMYGDDLEARIKTNRFVPDKEFSGSDRRQRGREGPVQFEEDPFGLDKFLEEAKQHGGSKRPSDSSRPKEHEHEGKKRRKE
B1: the “total increase in reporter activity” value with estrogen receptor (ER) (SKIP with cotransfected SRA) is reported as about 6 fold. The “increase of reporter activity” value with estrogen receptor (ER) (transfected SKIP alone) was about 2 fold.

B2: GST-SHARP-RRM: GST-SHARP fusion protein containing the three RRM domains (SHARP aas 1-608) (protein, UniProt Q96T58 1-608, looked up, fragment)
chain: MVRETRHLWVGNLPENVREEKIIEHFKRYGRVESVKILPKRGSEGGVAAFVDFVDIKSAQKAHNSVNKMGDRDLRTDYNEPGTIPSAARGLDDTVSIASRSREVSGFRGGGGGPAYGPPPSLHAREGRYERRLDGASDNRERAYEHSAYGHHERGTGGFDRTRHYDQDYYRDPRERTLQHGLYYASRSRSPNRFDAHDPRYEPRAREQFTLPSVVHRDIYRDDITREVRGRRPERNYQHSRSRSPHSSQSRNQSPQRLASQASRPTRSPSGSGSRSRSSSSDSISSSSSTSSDSSDSSSSSSDDSPARSVQSAAVPAPTSQLLSSLEKDEPRKSFGIKVQNLPVRSTDTSLKDGLFHEFKKFGKVTSVQIHGTSEERYGLVFFRQQEDQEKALTASKGKLFFGMQIEVTAWIGPETESENEFRPLDERIDEFHPKATRTLFIGNLEKTTTYHDLRNIFQRFGEIVDIDIKKVNGVPQYAFLQYCDIASVCKAIKKMDGEYLGNNRLKLGFGKSMPTNCVWLDGLSSNVSDQYLTRHFCRYGPVVKVVFDRLKGMALVLYNEIEYAQAAVKETKGRKIGGNKIKVDFANRESQLAFYHCMEKSGQDIRD
modifications: GST fusion
Turning to B2, in the experiment with SRA STR7, the “binding to SRA STR7 probe” value is on record as “bound STR7 avidly”.
